Assay results as given in PMC3399781 (Structure (London, England : 1993), 2010).

Target: the molecule itself
Experiment: AUC

B1: 2GS mGRFT (GRFT with GSGS inserted between Ser16 and Gly17) (natural protein)
chain: SLTHRKFGGSGGSPFSGSGSGLSSIAVRSGSYLDAIIIDGVHHGGSGGNLSPTFTFGSGEYISNMTIRSGDYIDNISFETNMGRRFGPYGGSGGSANTLSNVKVIQINGSAGDYLDSLDIYYEQY
Kd: 1170 µM
